{
  "source": "patent US20230257470A1",
  "about": "(published 2023)",
  "key": {"human FcγRIIa(H) [1]": {"biological_target": "T1, human FcγRIIa(H) (human, UniProt P12318 36-217)", "T1 construct": "also called FcgRIIaH; FcγRIIa type H", "T1 sequence": "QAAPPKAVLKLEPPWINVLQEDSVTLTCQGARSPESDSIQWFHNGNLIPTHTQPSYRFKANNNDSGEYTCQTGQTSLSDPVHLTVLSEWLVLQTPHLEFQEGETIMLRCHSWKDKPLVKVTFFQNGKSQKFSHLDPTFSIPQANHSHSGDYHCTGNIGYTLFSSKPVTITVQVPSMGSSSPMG", "assay": "SPR, antibody captured, FcγR as analyte, capture-corrected binding amount", "method": "(§1) Interaction between each modified antibody and Fcγ receptor prepared in the manner described above was analyzed using the BIACORE™ T100 surface plasmon resonance system (GE Healthcare), BIACORE™ T200 surface plasmon resonance system (GE Healthcare), BIACORE™ A100 surface plasmon resonance system or BIACORE™ 4000 surface plasmon resonance system. HBS-EP+(GE Healthcare) was used for the running buffer, and measurements were carried out at 25° C. The chips used were chips in which antigen peptides, Protein A (Thermo Scientific), Protein A/G (Thermo Scientific) or Protein L (ACTIGEN® protein (Alltech or BioVision) were immobilized on the Series S Sensor Chip CM5 (GE Healthcare) or Series S Sensor Chip CM4 (GE Healthcare) by amine coupling, or chips in which preliminarily biotinylated antigen peptides were allowed to interact and then immobilized on the Series S Sensor Chip SA (certified) (GE Healthcare). The target antibodies were captured on these sensor chips, Fcγ receptor diluted with the running buffer was allowed to interact, followed by measurement of the amount of bound antibody. The amounts bound were compared between antibodies. However, since the amount of Fcγ receptor bound depends on the amount of captured antibody, the values used for comparison were first corrected by dividing the amount of Fcγ receptor bound by the captured amount of each antibody. Through reaction with 10 mM glycine-HCl at pH 1.5, the sensor chips were regenerated by washing off antibody captured on the sensor chips and used repeatedly.\nBinding strength was evaluated according to the following method based on the results of analyzing the interaction with each FcγR. […] That value was then further multiplied by 100, and the resulting value was used as an indicator of relative binding activity to each FcγR."}, "human FcγRIIa(H) [2]": {"biological_target": "T2, human FcγRIIa(H) (human, UniProt P12318 36-217)", "T2 construct": "also called FcgRIIaH; FcγRIIa type H", "T2 sequence": "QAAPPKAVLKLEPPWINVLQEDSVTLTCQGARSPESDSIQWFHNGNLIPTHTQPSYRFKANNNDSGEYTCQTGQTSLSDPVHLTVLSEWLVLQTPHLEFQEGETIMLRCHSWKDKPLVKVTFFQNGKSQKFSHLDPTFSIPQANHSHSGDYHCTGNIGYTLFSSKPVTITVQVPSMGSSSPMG", "assay": "SPR (Biacore), captured antibody, FcγR analyte", "method": "Interaction between each modified antibody and Fcγ receptor prepared in the manner described above was analyzed using the BIACORE™ T100 surface plasmon resonance system (GE Healthcare), BIACORE™ T200 surface plasmon resonance system (GE Healthcare), BIACORE™ A100 surface plasmon resonance system or BIACORE™ 4000 surface plasmon resonance system. HBS-EP+(GE Healthcare) was used for the running buffer, and measurements were carried out at 25° C. The chips used were chips in which antigen peptides, Protein A (Thermo Scientific), Protein A/G (Thermo Scientific) or Protein L (ACTIGEN® protein (Alltech or BioVision) were immobilized on the Series S Sensor Chip CM5 (GE Healthcare) or Series S Sensor Chip CM4 (GE Healthcare) by amine coupling, or chips in which preliminarily biotinylated antigen peptides were allowed to interact and then immobilized on the Series S Sensor Chip SA (certified) (GE Healthcare). The target antibodies were captured on these sensor chips, Fcγ receptor diluted with the running buffer was allowed to interact, followed by measurement of the amount of bound antibody. The amounts bound were compared between antibodies. […]\nBinding strength was evaluated according to the following method based on the results of analyzing the interaction with each FcγR. […]"}, "human FcγRIa": {"biological_target": "T3, human FcγRIa (human, UniProt P12314 16-292, limits assumed)", "T3 construct": "also called hFcgRIa", "T3 sequence (P12314 16-292 limits assumed)": "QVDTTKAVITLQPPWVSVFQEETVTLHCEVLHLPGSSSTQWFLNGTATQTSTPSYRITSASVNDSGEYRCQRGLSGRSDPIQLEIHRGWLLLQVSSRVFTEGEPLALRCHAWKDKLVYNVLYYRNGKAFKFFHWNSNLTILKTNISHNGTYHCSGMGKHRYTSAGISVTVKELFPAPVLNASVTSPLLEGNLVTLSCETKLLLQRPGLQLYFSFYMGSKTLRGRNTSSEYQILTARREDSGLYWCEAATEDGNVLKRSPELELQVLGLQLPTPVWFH", "assay": "SPR (Biacore), antibody captured on chip, FcgR injected, HBS-EP+, 25 C; bound amount corrected by captured amount; reference GpH7-G1d/GpL16-k0", "method": "as §1"}, "human FcγRIIa(R)": {"biological_target": "T4, human FcγRIIa(R) (human, UniProt P12318 36-217)", "T4 construct": "also called hFcgRIIa(R); FcγRIIa type R", "T4 chain": "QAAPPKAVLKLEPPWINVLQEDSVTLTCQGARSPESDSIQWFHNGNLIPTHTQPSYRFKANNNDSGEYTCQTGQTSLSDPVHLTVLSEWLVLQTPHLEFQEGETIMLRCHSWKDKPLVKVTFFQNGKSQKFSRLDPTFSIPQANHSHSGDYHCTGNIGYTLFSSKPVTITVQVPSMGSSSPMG", "assay": "SPR (Biacore), antibody captured on chip, FcgR injected, HBS-EP+, 25 C; bound amount corrected by captured amount; reference GpH7-G1d/GpL16-k0", "method": "as §1"}, "human FcγRIIa(H) [3]": {"biological_target": "T5, human FcγRIIa(H) (human, UniProt P12318 36-217)", "T5 construct": "also called hFcgRIIa(H); FcγRIIa type H", "T5 sequence": "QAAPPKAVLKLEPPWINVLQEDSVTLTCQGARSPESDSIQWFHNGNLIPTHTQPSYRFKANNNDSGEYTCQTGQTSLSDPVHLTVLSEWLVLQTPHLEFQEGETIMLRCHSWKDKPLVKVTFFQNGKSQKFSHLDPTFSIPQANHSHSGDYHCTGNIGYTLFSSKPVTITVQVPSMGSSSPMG", "assay": "SPR (Biacore), antibody captured on chip, FcgR injected, HBS-EP+, 25 C; bound amount corrected by captured amount; reference GpH7-G1d/GpL16-k0", "method": "as §1"}, "human FcγRIIb": {"biological_target": "T6, human FcγRIIb (human, UniProt P31994 43-217, limits assumed)", "T6 construct": "also called hFcgRIIb", "T6 sequence": "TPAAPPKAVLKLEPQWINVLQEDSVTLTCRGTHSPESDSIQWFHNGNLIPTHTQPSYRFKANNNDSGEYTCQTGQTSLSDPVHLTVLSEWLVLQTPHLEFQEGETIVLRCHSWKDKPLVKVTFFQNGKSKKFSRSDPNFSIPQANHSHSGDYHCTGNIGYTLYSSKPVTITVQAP", "assay": "SPR (Biacore), antibody captured on chip, FcgR injected, HBS-EP+, 25 C; bound amount corrected by captured amount; reference GpH7-G1d/GpL16-k0", "method": "as §1"}, "human FcγRIIIa(F)": {"biological_target": "T7, human FcγRIIIa(F) (human, UniProt P08637 17-208, limits assumed)", "T7 construct": "also called hFcgRIIIa(F); allotype F158", "T7 sequence (P08637 other isoform, or with tags, fused parts or gaps limits assumed)": "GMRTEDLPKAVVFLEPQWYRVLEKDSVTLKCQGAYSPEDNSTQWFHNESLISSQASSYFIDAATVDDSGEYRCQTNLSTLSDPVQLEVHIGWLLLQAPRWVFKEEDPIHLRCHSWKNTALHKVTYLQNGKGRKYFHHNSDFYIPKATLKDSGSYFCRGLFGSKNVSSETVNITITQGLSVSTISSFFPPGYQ", "assay": "SPR (Biacore), antibody captured on chip, FcgR injected, HBS-EP+, 25 C; bound amount corrected by captured amount; reference GpH7-G1d/GpL16-k0", "method": "as §1"}},
  "data": [
    {"binder": "GpH7-B3 N325Y/GpL16-k0 (antibody, human IgG1, Anti-glypican-3 human IgG1 with B3 constant region (G1d with K439E); also called B3 variant; copies: 2 + 2) heavy: not shown light: DIVMTQSPLSLPVTPGEPASISCQASESLVHSNRNTYLHWYLQKPGQSPQLLIYKVSNRFSGVPDRFSGSGSGTDFTLKISRVEAEDVGVYYCSQNTHVPPTFGQGTKVEIE", "values": [
      {"measurement": "relative binding activity", "setting": "human FcγRIIa(H) [1]", "value": "-9 % of GpH7-B3/GpL16-k0"}
    ]},
    {"binder": "GpH7-B3 variant V266R/GpL16-k0 (antibody, human IgG1, anti-glypican-3 IgG1; alteration introduced into GpH7-B3; copies: 2 + 2) heavy: not shown light: DIVMTQSPLSLPVTPGEPASISCQASESLVHSNRNTYLHWYLQKPGQSPQLLIYKVSNRFSGVPDRFSGSGSGTDFTLKISRVEAEDVGVYYCSQNTHVPPTFGQGTKVEIE", "values": [
      {"measurement": "relative binding activity", "setting": "human FcγRIIa(H) [2]", "value": "1 % of GpH7-B3/GpL16-k0"}
    ]},
    {"binder": "GpH7-B3/GpL16-k0 (antibody, human IgG1, also called anti-glypican-3 antibody with B3 constant region (G1d with K439E)) heavy: not shown light: DIVMTQSPLSLPVTPGEPASISCQASESLVHSNRNTYLHWYLQKPGQSPQLLIYKVSNRFSGVPDRFSGSGSGTDFTLKISRVEAEDVGVYYCSQNTHVPPTFGQGTKVEIE", "values": [
      {"measurement": "relative binding activity (amount bound / amount bound by GpH7-G1d/GpL16-k0 x 100)", "setting": "human FcγRIa", "value": 109},
      {"measurement": "relative binding activity (amount bound / amount bound by GpH7-G1d/GpL16-k0 x 100)", "setting": "human FcγRIIa(R)", "value": 94},
      {"measurement": "relative binding activity (amount bound / amount bound by GpH7-G1d/GpL16-k0 x 100)", "setting": "human FcγRIIa(H) [3]", "value": 92},
      {"measurement": "relative binding activity (amount bound / amount bound by GpH7-G1d/GpL16-k0 x 100)", "setting": "human FcγRIIb", "value": 88},
      {"measurement": "relative binding activity (amount bound / amount bound by GpH7-G1d/GpL16-k0 x 100)", "setting": "human FcγRIIIa(F)", "value": 88}
    ]},
    {"binder": "GpH7-B3 variant V266K/GpL16-k0 (antibody, human IgG1, anti-glypican-3 IgG1; alteration introduced into GpH7-B3; copies: 2 + 2) heavy: not shown light: DIVMTQSPLSLPVTPGEPASISCQASESLVHSNRNTYLHWYLQKPGQSPQLLIYKVSNRFSGVPDRFSGSGSGTDFTLKISRVEAEDVGVYYCSQNTHVPPTFGQGTKVEIE", "values": [
      {"measurement": "relative binding activity", "setting": "human FcγRIIa(H) [2]", "value": "1 % of GpH7-B3/GpL16-k0"}
    ]}
  ]
}
